# Read-outs that look alike come from different tables or passages of the source.
# Experiments:
# [1] = test system: retinoblastoma (Rb)-positive tumor cells; conditions: cited from earlier work
# CDK4/Cyclin D1 = molecular target: T1, CDK4/Cyclin D1 (Homo sapiens, UniProt P24385); assay: CDK4/Cyclin D1 in vitro kinase assay (32P filter capture, GST-Rb substrate); assay type: biochemical
# T1 construct: performed using full-length recombinant CDK2/cyclin A2 and CDK4/Cyclin D1; GST (N); purchased SignalChem, Richmond, Canada; host or cells: Sf9 insect cells (baculovirus)
# Method: CDK2/Cyclin A2 and CDK4/Cyclin D1 kinase assays were performed using full-length recombinant CDK2/cyclin A2 and CDK4/Cyclin D1 co-expressed by baculovirus in Sf9 insect cells using an N-terminal GST tag on both proteins. […] The [^32P]-ATP Assay cocktail was prepared in a designated radioactive working area by adding 150 ul of 10 mM ATP stock solution, 100 ul[^32P]-ATP (1 mCi/100 ul), 5.75 ml of kinase assay buffer I. 10 mM ATP Stock Solution was prepared by dissolving 55 mg of ATP in 10 ml of kinase assay buffer I. Store 200 μl aliquots at −20° C. […] The reaction was initiated by the addition of 5 μl [^32P]-ATP assay cocktail bringing the final volume up to 25 μl and incubating the mixture in a water bath at 30° C. for 15 minutes. After the incubation period, the reaction was terminated by spotting 20 μl of the reaction mixture onto individual pre-cut strips of phophocellulose P81 paper. The pre-cut P81 strip was air-dried and sequentially washed in a 1% phosphoric acid solution with constant gentle stirring. Radioactivity on the P81 paper was counted in the presence of scintillation fluid on a scintillation counter. […]
# Activities of peptides previously tested against CDK2A and CDK4D were determined using this assay format.
# T1 sequence (P24385 whole entry): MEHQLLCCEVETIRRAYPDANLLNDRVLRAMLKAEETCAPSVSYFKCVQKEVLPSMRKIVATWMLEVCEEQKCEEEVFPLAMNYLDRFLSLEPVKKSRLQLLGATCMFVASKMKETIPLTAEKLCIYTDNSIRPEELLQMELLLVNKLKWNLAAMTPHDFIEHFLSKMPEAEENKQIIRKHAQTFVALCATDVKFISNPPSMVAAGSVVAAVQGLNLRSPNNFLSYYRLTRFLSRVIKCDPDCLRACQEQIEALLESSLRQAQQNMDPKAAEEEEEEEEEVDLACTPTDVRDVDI
# T1 sequence (P11802 whole entry partner): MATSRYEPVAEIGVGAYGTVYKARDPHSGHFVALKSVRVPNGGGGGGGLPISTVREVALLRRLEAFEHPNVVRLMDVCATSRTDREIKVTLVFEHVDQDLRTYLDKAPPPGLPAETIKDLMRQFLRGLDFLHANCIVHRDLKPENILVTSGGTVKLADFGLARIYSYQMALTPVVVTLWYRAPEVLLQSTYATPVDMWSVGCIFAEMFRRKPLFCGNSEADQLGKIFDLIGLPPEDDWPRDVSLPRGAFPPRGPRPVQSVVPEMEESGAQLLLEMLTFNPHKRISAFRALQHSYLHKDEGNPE
Compound,cell cycle effect [1],activity in the CDK4/cyclin D1 kinase assay (in words) (CDK4/Cyclin D1),activity in the CDK4/cyclin D1 kinase assay (in words) (CDK4/Cyclin D1; listed as p21 X8 derivative)
CC(=O)c1c(C)c2cnc(Nc3ccc(N4CCNCC4)cn3)nc2n(C2CCCC2)c1=O [PD0332991],G1 arrest,–,–
"HAKRRLIX8: HAKRRLIX with X8 = 4-pyridylalanine, SEQ ID NO: 24",–,no observable activity,loses all activity

# From patent US9328139B2, “Cyclin based inhibitors of CDK2 and CDK4” (University of South Carolina, priority 2010, dated 2016)
